Residue numbers refer to the chain shown, from its start.
T1: human EphA3 (Homo sapiens, UniProt P29320)
T1 construct: a protein of the extracellular region of each human Eph receptor fused with the SEAP protein and the His tag; made in house; host or cells: Expi293F cells (culture supernatant)
T1 sequence (P29320 21-541 limits assumed): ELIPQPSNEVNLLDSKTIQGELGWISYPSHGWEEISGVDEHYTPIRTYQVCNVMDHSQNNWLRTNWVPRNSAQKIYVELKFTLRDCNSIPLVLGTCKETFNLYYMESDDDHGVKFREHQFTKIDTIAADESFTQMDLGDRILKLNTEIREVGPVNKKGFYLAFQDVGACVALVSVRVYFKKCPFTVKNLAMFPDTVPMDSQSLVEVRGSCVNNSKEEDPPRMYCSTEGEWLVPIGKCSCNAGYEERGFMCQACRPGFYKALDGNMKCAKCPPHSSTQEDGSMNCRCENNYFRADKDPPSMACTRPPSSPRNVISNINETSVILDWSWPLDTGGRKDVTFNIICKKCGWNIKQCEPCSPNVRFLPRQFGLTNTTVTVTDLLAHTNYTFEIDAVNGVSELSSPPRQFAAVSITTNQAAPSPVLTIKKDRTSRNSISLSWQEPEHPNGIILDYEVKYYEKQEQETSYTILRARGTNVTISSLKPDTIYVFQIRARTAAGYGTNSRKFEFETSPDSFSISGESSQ

T2: human EphB2 (Homo sapiens, UniProt P29323)
T2 construct: a protein of the extracellular region of each human Eph receptor fused with the SEAP protein and the His tag; made in house; host or cells: Expi293F cells
T2 sequence (P29323 19-543 limits assumed): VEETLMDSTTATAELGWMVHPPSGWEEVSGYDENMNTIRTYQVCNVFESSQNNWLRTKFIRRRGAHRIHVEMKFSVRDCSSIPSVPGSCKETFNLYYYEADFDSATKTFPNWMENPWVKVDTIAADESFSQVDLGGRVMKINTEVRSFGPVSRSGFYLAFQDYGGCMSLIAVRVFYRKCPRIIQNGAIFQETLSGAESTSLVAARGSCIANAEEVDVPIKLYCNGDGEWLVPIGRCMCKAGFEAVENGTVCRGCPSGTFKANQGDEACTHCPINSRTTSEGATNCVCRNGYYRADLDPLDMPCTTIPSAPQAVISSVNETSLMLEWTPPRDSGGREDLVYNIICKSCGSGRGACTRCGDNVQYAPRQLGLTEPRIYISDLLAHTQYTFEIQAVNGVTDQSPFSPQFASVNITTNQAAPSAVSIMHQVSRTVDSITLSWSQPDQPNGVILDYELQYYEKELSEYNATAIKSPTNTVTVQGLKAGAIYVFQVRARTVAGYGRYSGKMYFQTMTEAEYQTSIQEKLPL

T3: human EphB4 (Homo sapiens, UniProt P54760)
T3 construct: a protein of the extracellular region of each human Eph receptor fused with the SEAP protein and the His tag; made in house; host or cells: Expi293F cells
T3 sequence (P54760 16-539 limits assumed): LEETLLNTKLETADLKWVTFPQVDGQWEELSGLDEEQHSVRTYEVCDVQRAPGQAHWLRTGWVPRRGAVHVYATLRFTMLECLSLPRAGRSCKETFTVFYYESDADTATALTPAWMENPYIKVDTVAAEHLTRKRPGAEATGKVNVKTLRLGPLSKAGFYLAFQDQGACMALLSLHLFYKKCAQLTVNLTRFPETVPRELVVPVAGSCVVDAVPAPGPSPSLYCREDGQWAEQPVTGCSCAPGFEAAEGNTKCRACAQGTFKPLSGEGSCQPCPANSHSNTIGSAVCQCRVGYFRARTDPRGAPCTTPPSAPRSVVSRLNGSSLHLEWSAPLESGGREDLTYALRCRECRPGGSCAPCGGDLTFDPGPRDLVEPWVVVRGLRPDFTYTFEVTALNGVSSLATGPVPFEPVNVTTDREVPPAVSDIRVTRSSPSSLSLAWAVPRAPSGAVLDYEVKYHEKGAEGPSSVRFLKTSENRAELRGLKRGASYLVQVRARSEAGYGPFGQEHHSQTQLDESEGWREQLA

B1: 153 (antibody, V domains shown)
VH: QVQLVQSGSELKKPGASVKVSCKASGYTFTDYSMHWVRQAPGQGLKWMGWINTETGEPTYAQGFTGRFVFSLDTSVSTAYLQISSLKAEDTAVYYCARIPLYYYGSRYWYFDVWGQGTTVTVSS
VL: DIQMTQSPSSLSASVGDRVTITCRASENIYRNLAWYQQKPGKAPKLLLYAATNLADGVPSRFSGSGSGTDYTLTISSLQSEDFATYYCQHFWGTPWTFGQGTKVEIK
modifications: synthetic humanized antibody heavy chain variable region sequence; synthetic humanized antibody light chain variable region sequence
B2: 145 (antibody, V domains shown)
VH: B1 VH with Q62D, G63D, T65K
VL: B1 VL
modifications: synthetic humanized antibody heavy chain variable region sequence; synthetic humanized antibody light chain variable region sequence
B3: 157 (antibody, V domains shown)
VH: B1 VH with K46E
VL: B1 VL with K45Q, S80P
modifications: synthetic humanized antibody heavy chain variable region sequence; synthetic humanized antibody light chain variable region sequence
B4: 158 (antibody, V domains shown)
VH: B1 VH
VL: B1 VL with K45Q, S80P
modifications: synthetic humanized antibody heavy chain variable region sequence; synthetic humanized antibody light chain variable region sequence
B5: 154 (antibody, V domains shown)
VH: B1 VH with K46E, Q62D, G63D, T65K
VL: B1 VL
modifications: synthetic humanized antibody heavy chain variable region sequence; synthetic humanized antibody light chain variable region sequence
B6: 160 (antibody, V domains shown)
VH: B1 VH with V2I, Q62D, G63D, T65K
VL: B1 VL with K45Q, S80P
modifications: synthetic humanized antibody heavy chain variable region sequence; synthetic humanized antibody light chain variable region sequence
B7: 144 (antibody, V domains shown)
VH: B1 VH with K46E, Q62D, G63D, T65K
VL: B1 VL with K45Q, S80P
modifications: synthetic humanized antibody heavy chain variable region sequence; synthetic humanized antibody light chain variable region sequence
B8: 159 (antibody, V domains shown)
VH: B1 VH with Q62D, G63D, T65K
VL: B1 VL with K45Q, S80P
modifications: synthetic humanized antibody heavy chain variable region sequence; synthetic humanized antibody light chain variable region sequence
B9: 151 (antibody, V domains shown)
VH: B1 VH with V2I
VL: B1 VL
modifications: synthetic humanized antibody heavy chain variable region sequence; synthetic humanized antibody light chain variable region sequence
B10: 155 (antibody, V domains shown)
VH: B1 VH with V2I, Q62D, G63D, T65K
VL: B1 VL
modifications: synthetic humanized antibody heavy chain variable region sequence; synthetic humanized antibody light chain variable region sequence

What was measured:
Experiment in all cases: Selectivity ELISA of humanized antibodies for human Eph receptor
Format in all cases: binding
Details in all cases: coated protein 1 nM
human EphA3 = molecular target: T1, human EphA3
Procedure, shortened: (§1)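 Extracellular domains of human Eph receptors fused to SEAP-His were expressed in Expi293F cells for 5 days and captured from supernatant (1 nM final) on anti-His-coated plates. Humanized anti-EphA4 antibodies were incubated 1 h at room temperature, then HRP anti-IgG secondary, TMB substrate, and absorbance at 450 nm.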

SEAP-His = SEAP-His (Homo sapiens, UniProt P05187)
Procedure, shortened: as §1

human EphA2 = molecular target: T4, human EphA2 (Homo sapiens, UniProt P29317)
T4 construct: a protein of the extracellular region of each human Eph receptor fused with the SEAP protein and the His tag; made in house; host or cells: Expi293F cells (culture supernatant)
Procedure, shortened: as §1

human EphB2 = molecular target: T2, human EphB2
Procedure, shortened: as §1

human EphB4 = molecular target: T3, human EphB4
Procedure, shortened: as §1

SEAP-His, sequence (P05187 23-511 limits assumed): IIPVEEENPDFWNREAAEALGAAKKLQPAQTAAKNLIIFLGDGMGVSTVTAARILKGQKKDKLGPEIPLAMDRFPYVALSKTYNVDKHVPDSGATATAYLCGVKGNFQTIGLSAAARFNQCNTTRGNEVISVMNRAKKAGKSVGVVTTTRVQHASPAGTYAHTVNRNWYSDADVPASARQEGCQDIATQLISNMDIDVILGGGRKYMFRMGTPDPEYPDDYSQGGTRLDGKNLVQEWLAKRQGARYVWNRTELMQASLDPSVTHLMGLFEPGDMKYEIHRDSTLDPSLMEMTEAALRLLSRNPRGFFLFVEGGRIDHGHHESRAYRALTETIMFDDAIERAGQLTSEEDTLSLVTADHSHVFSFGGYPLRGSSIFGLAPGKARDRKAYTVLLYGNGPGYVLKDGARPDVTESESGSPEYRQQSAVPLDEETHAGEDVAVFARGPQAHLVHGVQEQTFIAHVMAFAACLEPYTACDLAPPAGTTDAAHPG
T4 sequence (P29317 24-537 limits assumed): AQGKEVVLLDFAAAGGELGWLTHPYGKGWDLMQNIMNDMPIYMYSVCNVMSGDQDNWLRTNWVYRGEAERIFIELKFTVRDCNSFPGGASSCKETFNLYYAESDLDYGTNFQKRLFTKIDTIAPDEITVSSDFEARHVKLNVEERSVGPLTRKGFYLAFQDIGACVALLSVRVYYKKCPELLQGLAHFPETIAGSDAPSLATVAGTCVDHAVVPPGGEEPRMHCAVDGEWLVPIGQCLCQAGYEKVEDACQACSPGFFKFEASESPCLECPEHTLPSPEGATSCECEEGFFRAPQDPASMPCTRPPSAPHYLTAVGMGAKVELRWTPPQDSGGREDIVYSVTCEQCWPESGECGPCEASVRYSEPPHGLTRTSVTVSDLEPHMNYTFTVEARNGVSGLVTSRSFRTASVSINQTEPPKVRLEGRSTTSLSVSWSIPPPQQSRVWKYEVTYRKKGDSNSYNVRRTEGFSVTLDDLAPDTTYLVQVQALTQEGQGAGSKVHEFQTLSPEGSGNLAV

| Molecule | hEphA3-SEAP-: absorbance at 450 nm, percentage with respect to hEphA4-SEAP-His as 100% (human EphA3) [%] | SEAP-His: absorbance at 450 nm, percentage with respect to hEphA4-SEAP-His as 100% (SEAP-His) [%] | hEphA2-SEAP-: absorbance at 450 nm, percentage with respect to hEphA4-SEAP-His as 100% (human EphA2) [%] | hEphB2-SEAP-: absorbance at 450 nm, percentage with respect to hEphA4-SEAP-His as 100% (human EphB2) [%] | hEphB4-SEAP-: absorbance at 450 nm, percentage with respect to hEphA4-SEAP-His as 100% (human EphB4) [%] |
| --- | --- | --- | --- | --- | --- |
| B1 | 6.1 | 5.9 | 6.0 | 5.9 | 6.0 |
| B2 | 6.6 | 6.4 | 6.5 | 6.7 | 6.7 |
| B3 | 6.4 | 6.1 | 6.3 | 6.2 | 6.5 |
| B4 | 6.5 | 6.3 | 6.7 | 6.3 | 6.5 |
| B5 | 6.2 | 6.3 | 6.2 | 6.2 | 6.4 |
| B6 | 6.2 | 6.3 | 6.1 | 6.2 | 6.3 |
| B7 | 5.7 | 5.7 | 5.6 | 5.7 | 5.7 |
| B8 | 5.4 | 5.3 | 5.4 | 5.4 | 5.4 |
| B9 | 6.9 | 6.8 | 6.9 | 7.0 | 7.4 |
| B10 | 5.6 | 5.8 | 5.5 | 5.5 | 5.7 |

From US10428140B2, “Anti-EphA4 antibody” (EISAI R&D MANAGEMENT CO., LTD., priority 2015, dated 2019)
